B1: KAT8 regulatory NSL complex subunit 2, residues 28 to 91; numbered along this chain, Q9H9L4 (parent)
chain: CAFTHRPCSHPRLEGQEFCIKHILEDKNAPFKQCSYISTKNGKRCPNAAPKPEKKDGVSFCAEH

± gives the uncertainty stated by the source.

The series covers variants of B1. The experiment in a line: abundance fitness (aPCA) (normalised: wild type 0, dead -1); higher = more abundant; growth selection in yeast, the domain comes from the species named. To be noted: Homo sapiens.
In the case of CAFSHRPCSHPRLEGQEFCIKHILEDKNAPFKQCSYISTKNGKRCPNAAPKPEKKDGVSFCAEH [T4S], the abundance fitness is -0.193 ± 0.081. CAFQHRPCSHPRLEGQEFCIKHILEDKNAPFKQCSYISTKNGKRCPNAAPKPEKKDGVSFCAEH [T4Q]: the abundance fitness is -0.494 ± 0.099. Regarding CAFYHRPCSHPRLEGQEFCIKHILEDKNAPFKQCSYISTKNGKRCPNAAPKPEKKDGVSFCAEH [T4Y], the abundance fitness is -0.15 ± 0.14. Under CAFHHRPCSHPRLEGQEFCIKHILEDKNAPFKQCSYISTKNGKRCPNAAPKPEKKDGVSFCAEH [T4H] stands -0.128 ± 0.08; under CAFRHRPCSHPRLEGQEFCIKHILEDKNAPFKQCSYISTKNGKRCPNAAPKPEKKDGVSFCAEH [T4R], -0.399 ± 0.085. Take CAFWHRPCSHPRLEGQEFCIKHILEDKNAPFKQCSYISTKNGKRCPNAAPKPEKKDGVSFCAEH [T4W]: the abundance fitness was -0.388 ± 0.1.

On to CAFPHRPCSHPRLEGQEFCIKHILEDKNAPFKQCSYISTKNGKRCPNAAPKPEKKDGVSFCAEH [T4P], for which the abundance fitness is -0.512 ± 0.083. For CAFIHRPCSHPRLEGQEFCIKHILEDKNAPFKQCSYISTKNGKRCPNAAPKPEKKDGVSFCAEH [T4I], the abundance fitness is -0.114 ± 0.1. As for CAFDHRPCSHPRLEGQEFCIKHILEDKNAPFKQCSYISTKNGKRCPNAAPKPEKKDGVSFCAEH [T4D], the abundance fitness is -0.163 ± 0.1.

Regarding CAFEHRPCSHPRLEGQEFCIKHILEDKNAPFKQCSYISTKNGKRCPNAAPKPEKKDGVSFCAEH [T4E], the abundance fitness is -0.305 ± 0.076. With CAFFHRPCSHPRLEGQEFCIKHILEDKNAPFKQCSYISTKNGKRCPNAAPKPEKKDGVSFCAEH [T4F], the abundance fitness was -0.181 ± 0.14. For CAFVHRPCSHPRLEGQEFCIKHILEDKNAPFKQCSYISTKNGKRCPNAAPKPEKKDGVSFCAEH [T4V], the abundance fitness was -0.468 ± 0.049. The result for CAFGHRPCSHPRLEGQEFCIKHILEDKNAPFKQCSYISTKNGKRCPNAAPKPEKKDGVSFCAEH [T4G] reads -0.394 ± 0.082; that for CAFNHRPCSHPRLEGQEFCIKHILEDKNAPFKQCSYISTKNGKRCPNAAPKPEKKDGVSFCAEH [T4N], -0.201 ± 0.3. In the case of CAFLHRPCSHPRLEGQEFCIKHILEDKNAPFKQCSYISTKNGKRCPNAAPKPEKKDGVSFCAEH [T4L], the abundance fitness is -0.53 ± 0.055. As for CAFAHRPCSHPRLEGQEFCIKHILEDKNAPFKQCSYISTKNGKRCPNAAPKPEKKDGVSFCAEH [T4A], the abundance fitness was -0.404 ± 0.064. For the variant CAFCHRPCSHPRLEGQEFCIKHILEDKNAPFKQCSYISTKNGKRCPNAAPKPEKKDGVSFCAEH [T4C], the abundance fitness is -0.102 ± 0.2. As for CAFMHRPCSHPRLEGQEFCIKHILEDKNAPFKQCSYISTKNGKRCPNAAPKPEKKDGVSFCAEH [T4M], the abundance fitness is -0.788 ± 0.072. With CAFKHRPCSHPRLEGQEFCIKHILEDKNAPFKQCSYISTKNGKRCPNAAPKPEKKDGVSFCAEH [T4K], the abundance fitness was -0.378 ± 0.084.

In the case of CAFTHRFCSHPRLEGQEFCIKHILEDKNAPFKQCSYISTKNGKRCPNAAPKPEKKDGVSFCAEH [P7F], the abundance fitness is -0.121 ± 0.12. CAFTHRLCSHPRLEGQEFCIKHILEDKNAPFKQCSYISTKNGKRCPNAAPKPEKKDGVSFCAEH [P7L]: the abundance fitness is -0.101 ± 0.046.

As to CAFTHRVCSHPRLEGQEFCIKHILEDKNAPFKQCSYISTKNGKRCPNAAPKPEKKDGVSFCAEH [P7V], the abundance fitness is -0.1 ± 0.052. For the variant CAFTHRACSHPRLEGQEFCIKHILEDKNAPFKQCSYISTKNGKRCPNAAPKPEKKDGVSFCAEH [P7A], the abundance fitness was -0.061 ± 0.076. The result for CAFTHRDCSHPRLEGQEFCIKHILEDKNAPFKQCSYISTKNGKRCPNAAPKPEKKDGVSFCAEH [P7D] reads 0.003 ± 0.1; that for CAFTHRGCSHPRLEGQEFCIKHILEDKNAPFKQCSYISTKNGKRCPNAAPKPEKKDGVSFCAEH [P7G], -0.063 ± 0.091. Take CAFTHRICSHPRLEGQEFCIKHILEDKNAPFKQCSYISTKNGKRCPNAAPKPEKKDGVSFCAEH [P7I]: the abundance fitness was -0.096 ± 0.081.

Turning to CAFTHRCCSHPRLEGQEFCIKHILEDKNAPFKQCSYISTKNGKRCPNAAPKPEKKDGVSFCAEH [P7C], the abundance fitness was -0.201 ± 0.091. Consider CAFTHRECSHPRLEGQEFCIKHILEDKNAPFKQCSYISTKNGKRCPNAAPKPEKKDGVSFCAEH [P7E], for which the abundance fitness is -0.063 ± 0.078. Consider CAFTHRMCSHPRLEGQEFCIKHILEDKNAPFKQCSYISTKNGKRCPNAAPKPEKKDGVSFCAEH [P7M], for which the abundance fitness is -0.05 ± 0.067. Under CAFTHRWCSHPRLEGQEFCIKHILEDKNAPFKQCSYISTKNGKRCPNAAPKPEKKDGVSFCAEH [P7W] stands -0.148 ± 0.06. CAFTHRSCSHPRLEGQEFCIKHILEDKNAPFKQCSYISTKNGKRCPNAAPKPEKKDGVSFCAEH [P7S]: the abundance fitness was -0.14 ± 0.053. With CAFTHRHCSHPRLEGQEFCIKHILEDKNAPFKQCSYISTKNGKRCPNAAPKPEKKDGVSFCAEH [P7H], the abundance fitness was -0.133 ± 0.14. Take CAFTHRYCSHPRLEGQEFCIKHILEDKNAPFKQCSYISTKNGKRCPNAAPKPEKKDGVSFCAEH [P7Y]: the abundance fitness was -0.149 ± 0.1.

On to CAFTHRKCSHPRLEGQEFCIKHILEDKNAPFKQCSYISTKNGKRCPNAAPKPEKKDGVSFCAEH [P7K], for which the abundance fitness is -0.123 ± 0.073. As to CAFTHRRCSHPRLEGQEFCIKHILEDKNAPFKQCSYISTKNGKRCPNAAPKPEKKDGVSFCAEH [P7R], the abundance fitness was -0.003 ± 0.058.

For the variant CAFTHRNCSHPRLEGQEFCIKHILEDKNAPFKQCSYISTKNGKRCPNAAPKPEKKDGVSFCAEH [P7N], the abundance fitness is -0.204 ± 0.21. The result for CAFTHRQCSHPRLEGQEFCIKHILEDKNAPFKQCSYISTKNGKRCPNAAPKPEKKDGVSFCAEH [P7Q] reads -0.072 ± 0.062; that for CATTHRPCSHPRLEGQEFCIKHILEDKNAPFKQCSYISTKNGKRCPNAAPKPEKKDGVSFCAEH [F3T], -0.083 ± 0.068; that for CAPTHRPCSHPRLEGQEFCIKHILEDKNAPFKQCSYISTKNGKRCPNAAPKPEKKDGVSFCAEH [F3P], -0.639 ± 0.074. The result for CAWTHRPCSHPRLEGQEFCIKHILEDKNAPFKQCSYISTKNGKRCPNAAPKPEKKDGVSFCAEH [F3W] reads -0.161 ± 0.061. Under CAYTHRPCSHPRLEGQEFCIKHILEDKNAPFKQCSYISTKNGKRCPNAAPKPEKKDGVSFCAEH [F3Y] stands -0.151 ± 0.057; under CANTHRPCSHPRLEGQEFCIKHILEDKNAPFKQCSYISTKNGKRCPNAAPKPEKKDGVSFCAEH [F3N], -0.312 ± 0.1.
